The values that follow come from US20080305111A1 (VACCINEX, published 2008).

Assay [1] concerns the target T1, C35 protein (recombinant, construct not stated) (human, UniProt Q9BRT3 1-115, limits assumed).
T1 construct: also called recombinant C35 protein; control C35 protein
T1 sequence: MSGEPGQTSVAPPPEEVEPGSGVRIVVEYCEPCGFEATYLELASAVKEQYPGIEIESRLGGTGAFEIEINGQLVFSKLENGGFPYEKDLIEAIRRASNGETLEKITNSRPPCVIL
As to the kind of experiment: ELISA on C35 or control protein A27L, secreted antibody from HeLa cells. (ELISA stands for enzyme-linked immunosorbent assay.)

For assay [2], the target named is T1, C35 protein (recombinant, construct not …). The assay is described as follows: ELISA and Western blot.
The target of a further assay is T2, #5 (8454).
T2 construct: One member of the group m17; also called predicted partial Lys-C digest fragment #5 of rhC35; 8kDa N-terminal fragment
T2 N-terminal fragment of 6-His-tagged rhC35, from the N-terminus to the first Lys-C tick: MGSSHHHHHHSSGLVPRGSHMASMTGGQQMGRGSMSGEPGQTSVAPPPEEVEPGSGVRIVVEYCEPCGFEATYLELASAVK
The assay is described as follows: Western blot of partially Lys-C digested rhC35, MAb 163, goat anti-human-HRP, TMB.

Assay [3] has as its target T3, 6×His-tagged recombinant human C35 (human).
T3 construct: Made in E. coli; also called rhC35; rC35
As to the kind of experiment: SPR (Biacore), MAb 163 captured on goat anti-human IgG Fc on a CM5 chip, rC35 in solution, 1:1 kinetic model. (In general: SPR reads the build-up and loss of mass on a sensor chip optically.)

B1: MAb 165 (antibody, V domains shown)
VH: QVQLQESGPGLVKPPETLSLTCNVSGGSIGRYYWNWIRQSPGKGLEWIGHIHYSGSTIYHPSLKSRVSISLDTSKNQVSLKLSSVTAADTAVYYCARGAYYGGAFFPYFDVWGQGTTVTVSS
VL: DIQMTQSPSSLSASMGDRVTITCRASQGIRNHLAWYQQKPGKAPNLLISAASTLQSGVPTRFSGSGSGTDFTLTISSLQPEDSATYYCQQYNRYPLTFGQGTKLEIK
notes: also called 141D10 VH H732 with UH8 VK L120
Consider B1, for which the binding result in assay [1] was “binds”.

B2: 1B3 murine anti-C35 monoclonal antibody (antibody, V domains shown)
VH: EVQLQESGPSLVKPSQTLSLTCSVTGDSITSGYWNWIRKFPGNKLEYVGYISYSGGTYYNPSLKSRISITRDTSKNHYYLQLNSVTTEDTATYYCARGAYYGGAFFPYFDVWGAGTTVTVSS
VL: DVQITQSPSFLAASPGETITINCRASKYISKHLVWYQEKPGETKKLLIYSGSTLQSGLPSRFSGSGSGTDFTLTISSLEPEDFAMYYCQQHNEYPLTFGAGTKLELK
notes: also called hybridoma 1B3.6.1
In the case of B2, the binding result in assay [2] is reported as “binds”.

B3: MAb 163 human anti-C35 monoclonal antibody (antibody, V domains shown)
VH: EVQLVESGGGLVKPGGSLRLSCEVSGITFSNAWMSWVRQAPGKGLEWVGRIKSKTDGGTTDYAAPVKGRFTISRDDSKNTLYLQMNSLKTEDTAVYYCSIGYYYDSSFKYGMDVWGQGTTVTVSS
VL: DIQMTQSPATLSASVGDRVTITCRASQSISRWLAWYQQKPGQAPKVLIYKASTLQSGVPSRFSGSGSGTEFSLTINSLQPDDFATYYCQQYYSYLRTFGQGTKLEIK
notes: Fully human antibody (clones H730 and L74), detected or captured with anti-human IgG reagents
What is called Kd is the constant that tells how readily two partners part at equilibrium. A word on the koff: it is the first-order rate constant of dissociation. For orientation: kon means the rate constant with which the complex forms. Turning to B3, in the assay with #5 (8454), the binding result is reported as “no binding”. For the same molecule, in assay [3], the Ka came out at 2.96e+08 M⁻¹, the dissociation constant (Kd) is 3.38 nM, the off-rate constant (koff) amounted to 0.000959 s⁻¹ and the association rate constant (kon) is 284000 M⁻¹ s⁻¹.
